Laboratory results published in patent publication US20240294622A1 (SUZHOU TRANSCENTA THERAPEUTICS, published 2024).

Legend:
HGREM1-His (ACRO) [1] = biological target: T1, HGREM1-His (ACRO) (human, UniProt O60565 25-184); test: blocking ELISA, Human Gremlin-1 binding to BMP4; column Percentage
T1 construct: Lys25-Asp184 of NP_037504 with C-terminal polyhistidine tag (ACRO GR1-H52H3); they are put here; also called hGREM1 (ACRO); human gremlin (ACRO)
T1 sequence: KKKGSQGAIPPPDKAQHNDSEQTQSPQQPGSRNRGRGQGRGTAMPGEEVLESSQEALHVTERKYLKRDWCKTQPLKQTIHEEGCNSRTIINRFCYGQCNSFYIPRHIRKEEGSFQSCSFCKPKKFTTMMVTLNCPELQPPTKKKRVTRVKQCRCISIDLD
Protocol: (§1) In addition, the ability of serial dilutions of antibodies provided herein to block Gremlin binding to human BMP2/4/7 was also examined via ELISA. Plates were coated with recombinant human BMP2/4/7 (0.5 μg/ml) overnight and then serial dilutions of antibodies were incubated with 1 μg/ml of human Gremlin-his modified for 1 h at RT before this complex was added to coated plates and allowed to incubate for an additional hour at RT. The plates were then washed and added with anti-his HRP (GenScript). Plates were then developed with a TMB solution and stopped by adding stop solution. The plates were read on a plate reader at 450 nm. […] The chimeric anti-gremlin 1 antibodies (69H5-chi) and chimeric anti-gremlin 1 antibodies (22F1-chi) also can inhibit the binding of gremlin to BMP2 and BMP4 (see, FIG. 3E and FIG. 3F). The chimeric anti-gremlin 1 antibodies (56C11-chi) can inhibit the binding of gremlin to BMP2 (see, FIG. 3E).

HGREM1-His (ACRO) [2] = biological target: T1, HGREM1-His (ACRO); test: ELISA on coated Gremlin-his (column Gremlin)
Protocol: Binding affinities to hGREM1 and XM5 were also compared. Briefly, XM5-Fc or Gremlin-his […] was coated. 100 μl of block solution consisting of PBS+1% BSA+1% normal goat serum+0.5% Tween 20 (Sigma) was added to each well and incubated at room temperature for 2 hours. 4-fold serial antibody dilution from 2 μg/ml were added. Afterward the plates were washed three times with 200 ul of PBS+0.1% Tween20 followed by adding 100 μl/well 1:10000 Goat anti mouse IgG-HRP (abeam), and incubate for 1 hour at room temperature. They were then washed 3× with PBS+0.1% Tween20. Finally, 100 μl/well of TMB (InnoReagents) was added to each well and after 2 minutes add 50 ul of stop solution to each well. The plates were read on a Multiscan FC microplate reader (Thermo Scientific) at […]. The EC50 values were show in table below.

HGREM1-His (ACRO) [3] = biological target: T1, HGREM1-His (ACRO); test: blocking ELISA, Human Gremlin-1 binding to BMP2; column Percentage
Protocol: as §1

HGREM1-His (ACRO) [4] = biological target: T1, HGREM1-His (ACRO); test: competition ELISA on captured human gremlin (Acro,0.5ug/ml), upper panel: hybridoma 14E3 titrated against a fixed amount of chimeric 22F1-C, bound chimeric antibody detected
Protocol: Epitope binning of anti-gremlin hybridoma antibodies were performed using a competition ELISA assay. Clear polystyrene plates (BEAVER) were coated with 100 μl/well of a 0.5 μg/ml hGREM1 (ACRO) in high pH coating buffer overnight at 4° C. Then the plates were washed once on an automatic plate washer using PBS+0.1% Tween 20 (Sigma). 100 μl of block solution consisting of PBS+1% BSA+1% normal goat serum+0.05% Tween 20 (Sigma) was added to each well and incubated at room temperature for 2 hours. Then 50 μl/well of 20 μg/ml saturated antibodies (hybridoma antibodies) in antibody dilution buffer (PBS+1% BSA+1% normal goat serum+0.01% Tween 20) were then added to each well of the plate and incubate for 1 hour. Then add 50 μl/well of 40 ng/ml competitive antibodies (chimeric antibodies, e.g., 14E3-C, 22F1-C, 56C11-C, and 69H5-C) to each well of the plate and incubate for another 1 hour at room temperature. […] The plates were read on a plate reader at 450 nm. The failure of the second antibody to bind in the presence of saturating quantities of the first antibody indicates the two antibodies were in the same epitope bin; the success of the second antibody to bind in the presence of the saturating quantities of the first antibody indicates the two antibodies were in different epitope bins. […]
The amount of chimeric antibody bound to gremlin were determined.

human COCO (R&D) = biological target: T2, human COCO (R&D) (human, UniProt Q8N907 23-189, limits assumed); test: ELISA on coated human COCO (R&D, 0.5ug/ml), anti-mouse IgG-HRP
T2 sequence (looked up): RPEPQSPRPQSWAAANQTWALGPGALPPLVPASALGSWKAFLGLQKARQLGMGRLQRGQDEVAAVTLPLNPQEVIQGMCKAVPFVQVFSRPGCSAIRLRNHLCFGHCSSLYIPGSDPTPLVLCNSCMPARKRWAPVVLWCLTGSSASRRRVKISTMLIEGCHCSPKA
Protocol: In addition, the specificity of the binding of 14E3 and a benchmark antibody was assessed with ELISA. Briefly, clear polystyrene plates (BEAVER) were coated with 100 μl/well of a […] hGREM1 (ACRO), or human gremlin-2 (R&D), human COCO (R&D) and human DAN protein (R&D) in high pH coating buffer overnight at 4° C. Then the plates were washed once on an automatic plate washer using PBS+0.1% Tween 20 (Sigma). 100 μl of block solution consisting of PBS+1% BSA+1% normal goat serum+0.5% Tween 20 (Sigma) was added to each well and incubated at room temperature for 2 hours. Then 100 ul of antibodies in antibody dilution buffer containing PBS+1% BSA+1% normal goat serum+0.01% Tween 20 starting from 2 μg/ml and then 5 fold serial dilution were added to each well of the plate and incubated for 1 hours at room temperature. Afterward the plates were washed three times with 200 ul of PBS+0.1% Tween20 followed by adding 100 μl/well 1:10000 Goat anti mouse IgG-HRP (Abcam), and incubate for 1 hour at room temperature. They were then washed 3× with PBS+0.1% Tween20. Finally, 100 µl/well of TMB (Pierce) was added to each well and after 5 minutes add 50 ul of stop solution to each well. The plates were read on a Multiscan FC microplate reader (Thermo Scientific) at […].

B1: 36F5 (antibody, V domains shown)
VH: QVQLQQSGAELARPGASVKLSCKASGYSFTSSGIGWVKQRSGQGLEWIGEIYPRSGNTYNNEKFKGKATLTADKSSSTVYMELRSLTSEDSAVYFCVREAYSHHYYAMDYWGQGTSVTVFS
VL: DVLMTQTPLSLPVSLGGQASISCRSSQSLLHSNGNTYLEWYLQKPGQSPKLLIYKVSNRFSGVPDRLSGSGSGTDFTLKISRVEAEDLGVYYCFQGSHVPFTFGSGTKLEIN
notes: mouse hybridoma antibody; also called hybridoma 36F5
HGREM1-His (ACRO) [1]
  IC50: 0.512 mg/L
HGREM1-His (ACRO) [2]
  EC50: 0.0147 mg/L
HGREM1-His (ACRO) [3]
  IC50: 0.604 mg/L

B2: 14E3 (antibody, V domains shown)
VH: QIQLVQSGPELKKPGETVKISCKTSGSTFTTYGMAWMKQAPGKGLTWMGWINTLSGEPTYADDFKGRFAFSLKTSANTAYLQINNLKNEDAATYFCAREPMDYWGQGTSVIVSS
VL: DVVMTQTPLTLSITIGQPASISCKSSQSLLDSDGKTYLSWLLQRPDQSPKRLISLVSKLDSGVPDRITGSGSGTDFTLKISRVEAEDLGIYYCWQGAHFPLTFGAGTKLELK
notes: mouse hybridoma antibody; also called hybridoma 14E3; anti-gremlin1 antibody 14E3
HGREM1-His (ACRO) [4]
  IC50 (read off the curve): ~1 mg/L
Human COCO (R&D)
  binding result: no binding (tested: 1 ug/ml)
